Measurements: the supplement of paper PMC9170038

Test system: MS2 coat protein
Assay: apparent KD of MS2 coat protein; higher = weaker reporter binding
Details: Eterna round: R107
Protocol: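 RNA-MaP round R107: designed RNA switches with theophylline, tryptophan, arginine or FMN aptamers are transcribed on-chip within common flanks. They are titrated with SNAP-549-labelled MS2 coat protein in RNA-MaP buffer (100 mM Tris pH 7.5, 80 mM KCl, 4 mM MgCl2), without ligand or with the indicated ligand. Median apparent KD per design.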

[1] = input ligand: theophylline 20 uM
[2] = input ligand: tryptophan 2.4 mM
[3] = input ligand: theophylline 2 mM

Sequence | apparent KD of MS2 coat protein (input ligand: arginine 13.2 mM) [nM] | apparent KD of MS2 coat protein [1] [nM] | apparent KD of MS2 coat protein [2] [nM] | apparent KD of MS2 coat protein (input ligand: none) [nM] | apparent KD of MS2 coat protein [3] [nM]
ACAUGAGGAUCACCCAUGUAAGGUCUUGAUACCAGACGAGAAGUAGUCCCUUGGCAGCAAAUACGUGAGGGUCACACAUGUGUAA [edsmullin] | 21.6 | 37.7 | 25.9 |  | 
ACAUGAGGAUCACCCAUGUAAUUUACAGAAGGAGCGUGAUGGAUCACAGGUAGGUCGCUGUACUGCGAAAGCACUCUCAUGAAUA [JR_Nu_SSArginiA_Sub025] | 18.6 | 25.3 | 19 | 16.8 | 19.7
ACAUGAGGAUCACCCAUGUACAUAAGGGAAGGAGCGCGGUGAAACGCAGGUAGGUCGCCCAUAAUAACAAUAAAUAAAUUCAUGU [LeftA1] | 19.8 | 21 | 15.8 | 13.5 | 19
ACAUGAGGAUCACCCAUGUACAUAAGGGAAGGAGCGCGGUGAGACGCAGGUAGGUCGCCCAUAAUAACAAACAUUAAAUUCAUGU [#25 Same State - Arginine A] | 17.2 | 25.5 | 19.1 | 17.7 | 21.3
ACAUGAGGAUCACCCAUGUACAUGAGGGAAGGAGCGGUACAUGUGCCAGGUAGGUCGCCCAACAGCAUCAGCCAUGUACAUCAGC [ppsmullin] | 38.1 | 117 | 49.7 | 113 | 83.5
ACAUGAGGAUCACCCAUGUAGUGGCACGAUACCAGCUGAUCCCGUGGCCCUUGGCAGCGUCCGGUGUGGUCUGCCGGGAUGGAGC [WBWMULLIN] | 25 | 40.7 | 24.8 |  | 
ACAUGAGGAUCACCCAUGUAUCAACGGGAAGGAGCGCCAAACAAGGCAGGUAGGUCGCCCACAUGAGGAUCACCCGUGUGUUGGG [Exclusion Arginine A GF 30] | 23.1 | 58.5 | 38.4 | 37.8 | 43.9
ACAUGAGGAUCACCCAUGUAUUACCGGGAAGGAGCGCGUAAGGACGCAGGUAGGUCGCUCGGCGUCGUGCUGUAAAGCACGACGA [#1 Same State - Arginine A Attempt #24 (HarryS)] | 67.7 | 18.6 | 15.3 | 14.9 | 14.9
ACAUGAGGAUCACCCAUGUAUUACCGGGAAGGAGCGCGUAAGGACGCAGGUAGGUCGCUCGGCGUCUGGCCGCAAGGCUGGACGA [#1 Same State - Arginine A Attempt #18 (HarryS)] | 12.6 | 21.3 | 15.9 | 15.5 | 15.2
ACAUGAGGAUCACCCAUGUCAUGAGGUUCACGAGGACCGGUACGGCCGCCACUCGGGCUUCGGAUCACGGAUGUACAUGAUGAUC [kmullin1] | 45.4 | 92.2 |  |  | 123
ACAUGAGGAUCACCCAUGUGCAUCACCCGACGAGGACCGGUACGGCCGCCACUCGGGUAUAUAUUUGCAUCGGGUGAUUUUACGU [#25 Tryptophan A Same State] | 15.5 | 59.5 |  |  | 61.6
ACAUGAGGAUCACCCAUGUGGCGAGUUGAUACCAGACCCGCACUAGUCCCUUGGCAGCAACUACGUGUGGGACACCCAUGUUAAG [qpqmullin] | 35.1 | 76.2 | 39.5 | 57.6 | 77.1
ACAUGAGGAUCACCCAUGUUCCUCAUUGAUACCAGUGAAUUUAGACGCCCUUGGCAGCGAGUUUAAGAAGAAGAAGUUUUUUUUU [6.C] | 124 | 819 | 875 |  | 
ACAUGAGGAUCACCCAUGUUCCUCUUUGAUACCAGUGAGUUGUUUCGCCCUUGGCAGCGAGUGUUUGUUUUUUUGUUUUGUUUGG [6.S] | 137 | 314 | 229 |  | 
ACCAACCACACCCUUCACUGUUUUCGCCGCCGAGGACCGGUACGGCCGCCACUCGUACAAAGACAUGAGGAUCACCCAUGUGCCU [theeternabot_exclusion_MS2_Trp_A_7] | 14.8 | 20.3 |  |  | 20.4
ACGACGCAUACAGAUACCAGUAGAACAUGAGGAUCACCCAUGUCUGAGGCGCUCCGCCACUGCCCUUGGCAGCUGUAUGCGUCAG [SSTheo B #11] | 9.42 | 12.6 | 9.81 |  | 
